Assay results: patent publication US20170298106A1 (ZYNGENIA, published 2017)
Where no end group is shown, it is not given here. MBP = maltose binding protein (MBP), fused to the peptide

T1: angiopoietin-2 (Ang2) (human, UniProt O15123 68-496, limits assumed)
T1 construct: Plain and biotinylated Ang2 are kept as one molecule; also called rhAng2; recombinant Ang2
T1 sequence (looked up): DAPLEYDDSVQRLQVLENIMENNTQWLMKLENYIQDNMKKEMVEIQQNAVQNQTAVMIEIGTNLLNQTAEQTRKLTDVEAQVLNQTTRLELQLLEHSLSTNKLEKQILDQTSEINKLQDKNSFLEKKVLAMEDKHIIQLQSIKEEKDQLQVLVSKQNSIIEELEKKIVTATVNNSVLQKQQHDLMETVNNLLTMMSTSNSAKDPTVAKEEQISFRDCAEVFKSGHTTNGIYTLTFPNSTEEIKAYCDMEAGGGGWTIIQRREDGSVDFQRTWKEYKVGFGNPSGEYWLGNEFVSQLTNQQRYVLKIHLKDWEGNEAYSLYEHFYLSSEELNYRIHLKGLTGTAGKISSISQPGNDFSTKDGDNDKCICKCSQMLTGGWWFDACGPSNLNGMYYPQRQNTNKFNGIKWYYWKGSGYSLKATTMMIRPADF


target: insulin receptor (UniProt P06213-2 28-944, limits assumed); assay: not described
Sequence (P06213 other isoform, or with tags, fused parts or gaps limits assumed): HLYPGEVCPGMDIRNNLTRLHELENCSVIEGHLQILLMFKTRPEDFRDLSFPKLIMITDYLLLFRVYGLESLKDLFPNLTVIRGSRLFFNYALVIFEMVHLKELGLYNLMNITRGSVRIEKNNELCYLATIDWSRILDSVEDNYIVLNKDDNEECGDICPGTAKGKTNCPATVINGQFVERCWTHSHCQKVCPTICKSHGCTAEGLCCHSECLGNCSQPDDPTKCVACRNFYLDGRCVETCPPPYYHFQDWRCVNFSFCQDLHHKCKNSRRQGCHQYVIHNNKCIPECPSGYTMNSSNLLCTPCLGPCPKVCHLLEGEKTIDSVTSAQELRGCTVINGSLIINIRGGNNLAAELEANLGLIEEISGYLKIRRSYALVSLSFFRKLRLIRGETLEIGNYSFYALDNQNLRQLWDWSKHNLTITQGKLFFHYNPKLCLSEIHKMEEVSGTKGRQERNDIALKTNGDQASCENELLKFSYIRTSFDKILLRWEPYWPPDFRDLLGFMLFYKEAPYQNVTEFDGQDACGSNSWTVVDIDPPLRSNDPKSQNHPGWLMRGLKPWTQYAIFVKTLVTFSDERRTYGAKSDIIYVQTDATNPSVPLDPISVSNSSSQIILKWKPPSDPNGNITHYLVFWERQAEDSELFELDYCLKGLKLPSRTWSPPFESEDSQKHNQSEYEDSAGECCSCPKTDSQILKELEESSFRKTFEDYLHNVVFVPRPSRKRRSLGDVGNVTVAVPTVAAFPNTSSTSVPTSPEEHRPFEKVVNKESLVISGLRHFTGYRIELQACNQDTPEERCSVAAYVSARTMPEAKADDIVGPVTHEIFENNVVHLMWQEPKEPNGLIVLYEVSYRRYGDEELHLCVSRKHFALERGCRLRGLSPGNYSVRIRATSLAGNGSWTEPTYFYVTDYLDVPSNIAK

Binder | binding result
NFYQCIEQLALRPAEKSRGQWQECRTGG [Rm4-33] | no binding
NFYQCIEHLSGSPAEKSRGQWQECRTG [Rm4-44] | no binding
NFYQCIESLAGGPAEKSRGQWQECRTG [Rm4-45] | no binding
NFYQCIEVFWGRPAEKSRGQWQECRTG [Rm4-410] | no binding
NFYQCIEQLSSGPAEKSRGQWQECRTG [Rm4-411] | no binding

Continued, values first:

binding result | Binder
no binding | NFYQCIEALVGVPAEKSRGQWQECRTG [Rm4-46]
no binding | NFYQCIEALQSRPAEKSRGQWQECRTGG [Rm4-316]
no binding | NFYQCIELLSARPAEKSRGQWAECRAG [Rm4-415]
no binding | NFYQCIEALSRSPAEKSRGQWQECRTGG [Rm4-319]
no binding | NFYQCIEMLASHPAEKSRGQWQECRTGG [Rm4-31]
no binding | NFYQCIERLVTGPAEKSRGQWQECRTGG [Rm4-310]
no binding | NFYQCIEMLSLPPAEKSRGQWQECRTG [Rm4-49]
no binding | NFYQCIEALARTPAEKSRGQWVECRAP [Rm4-417]
no binding | NFYQCIEYLAMKPAEKSRGQWQECRTGG [Rm4-314]
no binding | NFYQCIDLLMAYPAEKSRGQWQECRTGG [Rm4-39]

target: T2, VEGF (human, UniProt P15692-4 27-191); assay: cell-based or functional assay
T2 sequence (P15692 other isoform, or with tags, fused parts or gaps limits assumed): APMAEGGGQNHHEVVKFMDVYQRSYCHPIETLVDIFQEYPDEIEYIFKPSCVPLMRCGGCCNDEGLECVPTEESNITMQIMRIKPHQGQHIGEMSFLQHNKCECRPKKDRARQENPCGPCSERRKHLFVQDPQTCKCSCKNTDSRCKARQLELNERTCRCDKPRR

inhibition of VEGF-induced proliferation of HUVEC, IC50 | Binder
0.36 nM | AVA-lm32(H) (bispecific antibody, not shown: a dimerising Fc or GST, also called AVASTIN with the lm32 MRD fused to the heavy chain) heavy (part 1 of 2): EVQLVESGGGLVQPGGSLRLSCAASGYTFTNYGMNWVRQAPGKGLEWVGWINTYTGEPTYAADFKRRFTFSLDTSKSTAYLQMNSLRAEDTAVYYCAKYPHYYGSSHWYFDVWGQGTLVTVSS heavy (part 2 of 2): MGAQTNFMPMDNDELLLYEQFILQQGLE VL: DIQMTQSPSSLSASVGDRVTITCSASQDISNYLNWYQQKPGKAPKVLIYFTSSLHSGVPSRFSGSGSGTDFTLTISSLQPEDFATYYCQQYSTVPWTFGQGTKVEIKR

target: T1, angiopoietin-2 (Ang2); assay: binding of MBP fusion to Ang2

Binder | EC50
{MBP}-KSLSLSPGSGGGSMGAQTNFMPMDNDEALLYEQFILQQGLE (other, not shown: large carriers, also: N-terminal MBP fusion, not in chain) [MBP fusion of LM32 variant SEQ ID NO:90] | 0.182 nM
{MBP}-KSLSLSPGSGGGSMGAQTNFMPMDNDEALLYEEFILQQGLE (other, not shown: large carriers, also: N-terminal MBP fusion, not in chain) [MBP fusion of LM32 variant SEQ ID NO:97] | 0.426 nM
{MBP}-KSLSLSPGSGGGSMGAQTNFMPMDQDELLLYEQFILQQGLE (other, not shown: large carriers, also: N-terminal MBP fusion, not in chain) [MBP fusion of LM32 variant SEQ ID NO:99] | 0.383 nM
{MBP}-KSLSLSPGSGGGSMGAQTNFMPMDNDEGLLYEEFILQQGLE (other, not shown: large carriers, also: N-terminal MBP fusion, not in chain) [MBP fusion of LM32 variant SEQ ID NO:96] | 0.922 nM
{MBP}-KSLSLSPGSGGGSMGAQTNFMPMDNDELLLYEQFI (other, not shown: large carriers, also: N-terminal MBP fusion, not in chain) [MBP fusion of LM32 variant SEQ ID NO:32] | 1.08 nM

Other lines, results leading:

EC50 | Binder
0.392 nM | {MBP}-KSLSLSPGSGGGSMGAQTNFMPMDNDEALLYEQFIYQQGLE (other, not shown: large carriers, also: N-terminal MBP fusion, not in chain) [MBP fusion of LM32 variant SEQ ID NO:94]
0.902 nM | {MBP}-KSLSLSPGSGGGSMGAQTNFMPMDNDEGLLYEQFIYQQGLE (other, not shown: large carriers, also: N-terminal MBP fusion, not in chain) [MBP fusion of LM32 variant SEQ ID NO:93]
1.42 nM | {MBP}-KSLSLSPGSGGGSMGAQTNFMPMDNDELTLYEQFILQQGLE (other, not shown: large carriers, also: N-terminal MBP fusion, not in chain) [MBP fusion of LM32 variant SEQ ID NO:91]
0.24 nM | {MBP}-KSLSLSPGSGGGSMGAQTNFMPMDDDELLLYEQFILQQGLE (other, not shown: large carriers, also: N-terminal MBP fusion, not in chain) [MBP fusion of LM32 variant SEQ ID NO:100]
20.7 nM | {MBP}-KSLSLSPGSGGGSMGAQTNFMPMDNEELLLYEQFI (other, not shown: large carriers, also: N-terminal MBP fusion, not in chain) [MBP fusion of LM32 variant SEQ ID NO:33]

target: T1, angiopoietin-2 (Ang2); assay: ELISA on rhAng2-coated wells, MRD-MBP fusion, anti-MBP detection; EC50 by 4 parameter fit
Method: MBP fusion proteins were serially diluted in Blocking buffer and added to wells for 2 hours at RT. After washing (8×300 μl wash buffer), samples were treated with HRP-mouse anti MBP mAb (NEB, cat # E8038S), diluted 1:4000 in Blocking buffer. After incubation for 1 hour at RT, wells were washed (8×300 μl wash buffer) prior to receiving 100 μl of TMB substrate (KPL Laboratories). Color development was stopped with 100 μl of H₂SO₄, and absorbance was read at 450 nm.
Bound fusion proteins were detected with anti-MBP mAb. Assayed proteins represent mutational variants of the sequence […] […] (L17D) (SEQ ID NO:107). In this series, the motif MDD within L17D was mutated at the first D to all other possible amino acids (except cysteine). Other MRDs tested were “Lm32 KtoS” and a dimer of Lm32 (2×Lm32).

EC50 | Binder
0.199 nM | {MBP}-PGSGGGSMGAQTNFMPMDNDELLLYEQFILQQGLE (other, not shown: small tags and cut ends, also: N-terminal MBP fusion, not in chain) [Lm32 KtoS-MBP fusion]

target: T2, VEGF; assay: sandwich ELISA, human VEGF coated (30 ng/ml), zybody varied in 3.876 ug/ml biotinylated Ang2, detection with HRP-streptavidin, A450
Method: (§1) Ninety-six-well plates were coated overnight with human VEGF (PeproTech, Inc. cat#100-20) at 30 ng/ml (100 μl/well). […] After washing (8×300 μl wash buffer), parallel samples received either HRP-conjugated anti-human kappa chain mAb (Abeam, cat # ab79115) diluted 1:1000 in Blocking buffer or HRP-conjugated streptavidin (Thermo Scientific cat#N100) diluted 1:4000 diluted in Blocking buffer. After incubation for 1 hour at RT, wells were washed (8×300 μl wash buffer) prior to receiving 100 μl of TMB substrate (KPL Laboratories). Color development was stopped with 100 μl of H₂SO₄, and absorbance was read at 450 nm.

EC50 (read off the curve) | Binder
~0.7 nM | AVA-lm32(H) (bispecific antibody, not shown: a dimerising Fc or GST, also called AVASTIN with the lm32 MRD fused to the heavy chain) heavy (part 1 of 2): EVQLVESGGGLVQPGGSLRLSCAASGYTFTNYGMNWVRQAPGKGLEWVGWINTYTGEPTYAADFKRRFTFSLDTSKSTAYLQMNSLRAEDTAVYYCAKYPHYYGSSHWYFDVWGQGTLVTVSS heavy (part 2 of 2): MGAQTNFMPMDNDELLLYEQFILQQGLE VL: DIQMTQSPSSLSASVGDRVTITCSASQDISNYLNWYQQKPGKAPKVLIYFTSSLHSGVPSRFSGSGSGTDFTLTISSLQPEDFATYYCQQYSTVPWTFGQGTKVEIKR

target: T3, rHER2-Fc (UniProt P04626 23-652); assay: ELISA, rHER2-Fc coated (20 ng/ml), sample diluted in 1.94 ug/ml biotinylated Ang2, detection with HRP anti-human kappa chain mAb, A450
T3 construct: Bought reagent; also called Her2 (ErbB2) Fc; ErbB2-Fc
Method: as §1, with “with rHER2-Fc (R&D cat#1129-ER-050)” for “with human VEGF (PeproTech, Inc. cat#100-20)”, “at 20” for “at 30”, “ng/ml (100W/well).” for “ng/ml (100 μl/well).”, “chain mAb-(Abeam,” for “chain mAb (Abeam,”, “# ab79115-1)” for “# ab79115)”

binding result | Binder
no binding (tested: about 7 nM) | AVA-lm32(H) (bispecific antibody, not shown: a dimerising Fc or GST, also called AVASTIN with the lm32 MRD fused to the heavy chain) heavy (part 1 of 2): EVQLVESGGGLVQPGGSLRLSCAASGYTFTNYGMNWVRQAPGKGLEWVGWINTYTGEPTYAADFKRRFTFSLDTSKSTAYLQMNSLRAEDTAVYYCAKYPHYYGSSHWYFDVWGQGTLVTVSS heavy (part 2 of 2): MGAQTNFMPMDNDELLLYEQFILQQGLE VL: DIQMTQSPSSLSASVGDRVTITCSASQDISNYLNWYQQKPGKAPKVLIYFTSSLHSGVPSRFSGSGSGTDFTLTISSLQPEDFATYYCQQYSTVPWTFGQGTKVEIKR

target: T2, VEGF; assay: ELISA, human VEGF coated (30 ng/ml), sample diluted in 3.876 ug/ml biotinylated Ang2, detection with HRP anti-human kappa chain mAb, A450
Method: as §1

EC50 (read off the curve) | binding result | Binder
~0.5 nM |  | AVA-lm32(H) (bispecific antibody, not shown: a dimerising Fc or GST, also called AVASTIN with the lm32 MRD fused to the heavy chain) heavy (part 1 of 2): EVQLVESGGGLVQPGGSLRLSCAASGYTFTNYGMNWVRQAPGKGLEWVGWINTYTGEPTYAADFKRRFTFSLDTSKSTAYLQMNSLRAEDTAVYYCAKYPHYYGSSHWYFDVWGQGTLVTVSS heavy (part 2 of 2): MGAQTNFMPMDNDELLLYEQFILQQGLE VL: DIQMTQSPSSLSASVGDRVTITCSASQDISNYLNWYQQKPGKAPKVLIYFTSSLHSGVPSRFSGSGSGTDFTLTISSLQPEDFATYYCQQYSTVPWTFGQGTKVEIKR
 | no binding (tested: about 20 nM) | HER-lm32(H) (bispecific antibody, not shown: a dimerising Fc or GST, also called HERCEPTIN-lm32 fusion; HERCEPTIN lm-32) heavy (part 1 of 2): not shown heavy (part 2 of 2): KSLSLSPGKGGGSMGAQTNFMPMDNDELLLYEQFILQQGLE VL: not shown

target: T4, insulin-like growth factor-I receptor (IGF1R) (UniProt P08069 31-932, limits assumed); assay: ELISA, coated antigen, absorbance at 405 nm, one condition per construct, BSA-coated wells as control; the bar labelled Antigen is the antigen of the MRD of the construct, here IGF1R (RP)
T4 construct: also called immobilized IGF-1R

binding result | Binder
no binding | Her-1L-RP (bispecific antibody, not shown: a dimerising Fc or GST, Her = HERCEPTIN) light (part 1 of 2): not shown light (part 2 of 2): SSGGGGSGGGGGGSSRSSSFYSCLESLVNGPAEKSRGQWDGCRKK VH: not shown

target: T5, integrin αvβ3 (UniProt P06756 31-992; P05106 27-718, limits assumed); assay: ELISA, coated antigen, absorbance at 405 nm, one condition per construct, BSA-coated wells as control; the bar labelled Antigen is the antigen of the MRD of the construct, here integrin avb3
T5 construct: Antigen of the ELISAs
T5 sequence (P06756 31-992 limits assumed, chain 1 of 2): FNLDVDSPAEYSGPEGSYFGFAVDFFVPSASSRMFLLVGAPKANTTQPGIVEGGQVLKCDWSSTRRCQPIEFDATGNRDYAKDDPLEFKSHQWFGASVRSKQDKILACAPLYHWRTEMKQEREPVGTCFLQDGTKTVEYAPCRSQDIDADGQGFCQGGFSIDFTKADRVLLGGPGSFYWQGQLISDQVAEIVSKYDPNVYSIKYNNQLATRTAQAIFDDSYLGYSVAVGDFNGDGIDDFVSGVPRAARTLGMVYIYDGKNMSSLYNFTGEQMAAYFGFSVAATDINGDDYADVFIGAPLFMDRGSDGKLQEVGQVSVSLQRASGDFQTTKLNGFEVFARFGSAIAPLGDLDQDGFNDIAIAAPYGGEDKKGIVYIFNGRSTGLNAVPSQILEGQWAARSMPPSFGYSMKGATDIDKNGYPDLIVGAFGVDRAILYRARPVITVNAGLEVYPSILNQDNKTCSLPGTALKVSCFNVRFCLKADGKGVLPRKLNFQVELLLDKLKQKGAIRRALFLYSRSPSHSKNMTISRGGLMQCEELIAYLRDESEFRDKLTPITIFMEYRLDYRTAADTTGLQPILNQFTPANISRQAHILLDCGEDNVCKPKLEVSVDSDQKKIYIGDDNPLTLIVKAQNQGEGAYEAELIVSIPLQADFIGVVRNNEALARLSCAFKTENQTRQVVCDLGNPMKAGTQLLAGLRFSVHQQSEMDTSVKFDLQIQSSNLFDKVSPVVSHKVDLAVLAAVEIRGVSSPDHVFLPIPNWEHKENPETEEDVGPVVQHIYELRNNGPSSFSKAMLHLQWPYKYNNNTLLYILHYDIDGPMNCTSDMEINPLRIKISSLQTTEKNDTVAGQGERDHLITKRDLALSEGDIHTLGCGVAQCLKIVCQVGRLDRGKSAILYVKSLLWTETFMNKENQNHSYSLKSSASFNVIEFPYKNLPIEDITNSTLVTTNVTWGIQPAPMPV
T5 sequence (P05106 27-718 limits assumed, chain 2 of 2): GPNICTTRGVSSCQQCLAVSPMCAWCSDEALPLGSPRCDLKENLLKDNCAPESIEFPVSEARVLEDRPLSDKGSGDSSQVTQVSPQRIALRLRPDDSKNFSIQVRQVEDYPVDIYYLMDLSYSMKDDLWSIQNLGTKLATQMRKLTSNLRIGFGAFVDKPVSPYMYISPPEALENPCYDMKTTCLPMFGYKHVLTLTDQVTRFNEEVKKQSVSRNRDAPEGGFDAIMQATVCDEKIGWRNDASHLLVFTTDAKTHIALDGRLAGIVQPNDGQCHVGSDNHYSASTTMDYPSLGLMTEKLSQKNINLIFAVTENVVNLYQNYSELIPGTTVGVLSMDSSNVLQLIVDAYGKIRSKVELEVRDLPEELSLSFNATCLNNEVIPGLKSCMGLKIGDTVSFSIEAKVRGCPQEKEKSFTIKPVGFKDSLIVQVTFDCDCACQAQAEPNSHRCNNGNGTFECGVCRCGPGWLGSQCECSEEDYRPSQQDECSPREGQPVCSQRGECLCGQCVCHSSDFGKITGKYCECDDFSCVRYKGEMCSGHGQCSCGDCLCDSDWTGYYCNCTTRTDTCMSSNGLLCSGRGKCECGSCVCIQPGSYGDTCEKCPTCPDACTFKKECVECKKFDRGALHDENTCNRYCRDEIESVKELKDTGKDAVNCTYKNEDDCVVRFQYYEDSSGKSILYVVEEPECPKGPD

binding result | Binder
no binding | Her-sL-RGD4C (bispecific antibody, not shown: a dimerising Fc or GST, Her = HERCEPTIN) light (part 1 of 2): not shown light (part 2 of 2): GGGSCDCRGDCFC VH: not shown
